The source of these data is patent EP4785962A1, “ANTIBODY-DRUG CONJUGATE TARGETING TROP2, AND PREPARATION METHOD AND USE THEREFOR” (priority 2023, dated 2025).

In series [1] the test system is human pancreatic cancer cell line BxPC-3. The series can be described thus: In vitro cytotoxicity test, BxPC3 cells, 6 days. The class given is cell-based. Conditions: BxPC3, 6 days of culture. The procedure: (§1) 10% FBS (SH30406.05, HYCLONE) was added to RPMI 1640 (22400-071, Gibco), and the mixture was mixed well to prepare a BxPC3 cell (ATCC) growth medium. BxPC3 or FaDu cells were adjusted to a concentration of 50000 cells/mL with a growth medium, seeded into a 96-well white-bottom plate (167008, NUNC) at 50 µL per well (2500 cells/well), and incubated overnight in an incubator at 37 °C. The antibody was diluted with growth medium and serially diluted 5-fold from 200 nM (2×) to obtain 9 gradients, with the final concentration being […]. The diluted antibody-drug conjugate or control was added at 50 µL/well, and the total volume was 100 µL. […] The cell pellet was fully lysed by shaking on a plate shaker for 5 min, and the luminescence signal was stabilized by standing at room temperature for 10 min. The culture plate was tested on a microplate reader (spectra MAX i3x, Molecular Divices), the […] were taken, and the cell viability was calculated. […]
(§2) The cell proliferation inhibition rate after 6 days of culture was calculated using the following formula.
(§3) Cell proliferation inhibition rate (%) = […], where a: the average value of experimental sample-added wells after 6 days of culture; b: the average value of control medium-added wells after 6 days of culture. The data were fitted by GraphPad Prism and the IC50 of the drug was calculated (Table 4).

Series [2] concerns human hypopharyngeal carcinoma squamous cell line FaDu. The series can be described thus: In vitro cytotoxicity test, FaDu cells, 6 days. The class given is cell-based. The conditions noted are these: 6 days of culture. As to the method:
as §1, §2, §3

The conditions of series [3]: once every three weeks for a total of 3 times; WO2020240467A1; cited from earlier work.
Series [4] has as its system Human gastric cancer cell line NCI-N87. The series can be described thus: Mouse xenograft tumor model NCI-N87. Type of series: in vivo, immunodeficient mice CB17-SCID. Conditions: intraperitoneal injection. As to the method:
• 1. Mice: immunodeficient mice CB17-SCID (Vital River) aged 6-8 weeks were placed in an SPF experimental environment for 3-5 days before the experiment to better adapt to the current living environment. In all experiments, the long and short diameters of the tumor were measured twice a week using a vernier caliper, and the tumor volume (mm^3) was calculated from the measured data. The calculation formula is as follows: Tumor volume(mm^3) = 0.5 × long diameter(mm) × short diameter(mm) × short diameter(mm) [formula] • 2. Human gastric cancer cell line NCI-N87 (ATCC) cells were resuspended in 1× PBS (Gibco, 10010049) at an appropriate concentration, and the tumor cells were implanted subcutaneously in the right abdomen of the mice at an inoculation amount of 2×10^6 /mouse. When the tumor volume reached 150-200 mm^3, the mice were divided into groups such that the average initial administration volume of each group was substantially the same. After grouping, different doses of antibody-drug conjugates hRs7-DXd, hRS7-MB3 and hTINA1-DXd, or control-drug conjugates IgG-MB3, IgG-DXd and IgG control were administered by intraperitoneal injection. […] Compared with hRS7-DXd, hRS7-MB3 has a stronger tumor inhibitory effect. […] Non-small cell lung cancer cell line HCC827 cells purchased from ATCC were inoculated subcutaneously into mice (2×10^6 /mouse), and when the tumor volume reached 120-150 mm^3, the mice were grouped and administered. Different doses of the antibody-drug conjugate and the control drug were intraperitoneally injected into the mice, and the administration was performed only once throughout the experiment. The growth status of the mice was observed, and the changes in tumor volume of the mice were measured. […] The lung squamous cell carcinoma cell line LK-2 (CBP60105) purchased from Nanjing Cobioer Biosciences was implanted subcutaneously in the right abdomen of the mice at an inoculation amount of 3 × 10 ^6 cells/mouse. When the tumor volume reached 150-200 mm^3, the mice were divided into groups such that the average initial administration volume of each group was substantially the same. The mice were administered only once throughout the experiment and injected intraperitoneally at a dose of 10 mg/kg. IgG-MB3 or IgG-DXd was used as a negative control. It was observed that two TROP2-targeted ADCs were also able to delay tumor growth in a tumor model with relatively low TROP2 expression (FIG. 7). […] The pancreatic cancer cell line BxPC3 cells purchased from ATCC were implanted subcutaneously in the right abdomen of the mice at an inoculation amount of 3 × 10 ^6 cells/mouse. […]

B1: hTINA1-DXd: control ADC: antibody hTINA1 conjugated with Linker-DXd, average DAR 4.3; TROP2-ADC from Daiichi Sankyo (conjugate, chains of the INN, looked up)
VH: QVQLVQSGAEVKKPGASVKVSCKASGYTFTTAGMQWVRQAPGQGLEWMGWINTHSGVPKYAEDFKGRVTISADTSTSTAYLQLSSLKSEDTAVYYCARSGFGSSYWYFDVWGQGTLVTVSS
VL: DIQMTQSPSSLSASVGDRVTITCKASQDVSTAVAWYQQKPGKAPKLLIYSASYRYTGVPSRFSGSGSGTDFTLTISSLQPEDFAVYYCQQHYITPLTFGQGTKLEIK
modifications: deruxtecan (Linker-DXd), DAR 4.3
notes: control ADC: antibody hTINA1 conjugated with Linker-DXd, average DAR 4.3; TROP2-ADC from Daiichi Sankyo
B1: the results for the 50% inhibitory concentration (IC50) in series [1] and in series [2] were 0.55 nM and 1.5 nM, respectively. In series [3], the HNSTD is on record as 30 mg/kg. Moreover, the tumor inhibitory effect result was “comparable tumor inhibitory effects” in series [4] (high-dose group (3 mg/kg)); “a certain degree of tumor inhibitory effect” in series [4] (low dose (1 mg/kg), compared with IgG-MB3 and IgG-DXd).
